Data set [1] has as its system T1, O=[N+]([O-])c1ccccc1O[C@@H]1O[C@H](CO)[C@H](O)[C@H](O)[C@H]1O.
T1 construct: E. coli LMG194; monomer
Nature of the data set: purified protein. It counts as biochemical, uncultured bacterium. The note with it: 20 mM phosphate buffer, 20°C, substrate 1.0-5.0 mM.

Data set [2] has as its system T2, O=[N+]([O-])c1ccc(O[C@@H]2O[C@H](CO)[C@@H](O)[C@H](O)[C@H]2O)cc1.
T2 construct: E. coli LMG194; monomer
Nature of the data set: purified protein. It counts as biochemical, uncultured bacterium. The note with it: 20 mM phosphate buffer, 20°C, substrate 1.0-5.0 mM.

In general, Km refers to the substrate concentration at which the rate is half of its maximum. As a reminder, the kcat is the maximal rate divided by the concentration of active sites. In general, kcat/Km refers to the turnover number divided by the Michaelis constant. Take BglMKg (uncultured bacterium): in data set [1], the Km was 9.04 ± 1.39 mM, the kcat was 12.4 ± 1.35 s⁻¹ and the kcat/Km came out at 1370 M⁻¹ s⁻¹. In addition, in data set [2], the Km was 0.16 ± 0.03 mM, the catalytic constant (kcat) was determined as 11.7 ± 0.26 s⁻¹ and the kcat/Km came to 73400 M⁻¹ s⁻¹.
